{"source": "paper PMC3824679", "about": "(Cell Death & Disease, 2013)", "target": "T1, GST-RanBP2-M1_(900–1826) (human, UniProt P49792 900-1826)", "T1 sequence (looked up)": "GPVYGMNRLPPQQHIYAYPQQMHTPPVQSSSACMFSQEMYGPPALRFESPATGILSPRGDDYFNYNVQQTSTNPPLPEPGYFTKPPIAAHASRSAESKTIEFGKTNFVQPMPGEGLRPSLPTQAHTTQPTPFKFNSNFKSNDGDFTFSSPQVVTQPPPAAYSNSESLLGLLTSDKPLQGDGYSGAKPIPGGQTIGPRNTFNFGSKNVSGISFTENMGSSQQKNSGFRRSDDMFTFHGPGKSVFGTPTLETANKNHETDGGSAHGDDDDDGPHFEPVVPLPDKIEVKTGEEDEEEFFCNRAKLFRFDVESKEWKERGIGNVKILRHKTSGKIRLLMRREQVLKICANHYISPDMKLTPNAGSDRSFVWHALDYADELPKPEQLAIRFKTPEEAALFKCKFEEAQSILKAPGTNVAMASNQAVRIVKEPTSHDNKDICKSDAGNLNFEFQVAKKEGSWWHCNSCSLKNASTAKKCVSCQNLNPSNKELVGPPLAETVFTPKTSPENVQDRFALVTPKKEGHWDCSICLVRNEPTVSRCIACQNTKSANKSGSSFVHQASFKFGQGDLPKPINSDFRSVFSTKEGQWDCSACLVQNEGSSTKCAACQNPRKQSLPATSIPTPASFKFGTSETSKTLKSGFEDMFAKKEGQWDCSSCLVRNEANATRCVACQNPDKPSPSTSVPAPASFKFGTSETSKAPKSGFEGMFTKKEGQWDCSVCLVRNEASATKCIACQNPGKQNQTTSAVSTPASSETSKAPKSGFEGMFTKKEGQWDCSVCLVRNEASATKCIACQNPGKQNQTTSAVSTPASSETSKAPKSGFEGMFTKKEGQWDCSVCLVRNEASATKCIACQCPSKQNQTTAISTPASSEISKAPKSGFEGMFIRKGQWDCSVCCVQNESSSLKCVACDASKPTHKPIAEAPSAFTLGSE", "test": "pull-down", "data": [{"binder": "His-Imp-β1-N2_(1–650) (domain or fragment, human, UniProt Q14974 1-650, looked up) MELITILEKTVSPDRLELEAAQKFLERAAVENLPTFLVELSRVLANPGNSQVARVAAGLQIKNSLTSKDPDIKAQYQQRWLAIDANARREVKNYVLQTLGTETYRPSSASQCVAGIACAEIPVNQWPELIPQLVANVTNPNSTEHMKESTLEAIGYICQDIDPEQLQDKSNEILTAIIQGMRKEEPSNNVKLAATNALLNSLEFTKANFDKESERHFIMQVVCEATQCPDTRVRVAALQNLVKIMSLYYQYMETYMGPALFAITIEAMKSDIDEVALQGIEFWSNVCDEEMDLAIEASEAAEQGRPPEHTSKFYAKGALQYLVPILTQTLTKQDENDDDDDWNPCKAAGVCLMLLATCCEDDIVPHVLPFIKEHIKNPDWRYRDAAVMAFGCILEGPEPSQLKPLVIQAMPTLIELMKDPSVVVRDTAAWTVGRICELLPEAAINDVYLAPLLQCLIEGLSAEPRVASNVCWAFSSLAEAAYEAADVADDQEEPATYCLSSSFELIVQKLLETTDRPDGHQNNLRSSAYESLMEIVKNSAKDCYPAVQKTTLVIMERLQQVLQMESHIQSTSDRIQFNDLQSLLCATLQNVLRKVQHQDALQISDVVMASLLRMFQSTAGSGGVQEDALMAVSTLVEVLGGEFLKYMEAF", "values": [{"measurement": "binding result", "value": "binds"}]}]}
